These results are taken from PMC8231094.

This test deals with rabbit muscle actin (rabbit) (UniProt P68135). Nature of the test: SPR; Biacore X100; rabbit muscle actin (10 ug/ml) covalently coupled to a CM5 chip by EDC/NHS, control lane without actin subtracted; formin fragments injected at 12.3 nM to 1 uM (1:3 serial dilution), 120 s injection, 600 s dissociation, 30 ul/min, 25 degrees; running buffer 10 mM HEPES pH 7.4, 150 mM NaCl, 3 mM EDTA, 10 mM MgCl2, 0.2 mM ADP, 0.5 mM DTT. On the technique in general: In SPR one partner is held on a chip, and binding of the other changes the refractive index at the surface.

pKd: −log10 of the molar value.

On to “SYMBIOTIC FORMIN 1 (SYFO1) FH1FH2 domain (domain or fragment)”, for which the pKd (as a rule, the negative decadic logarithm of the Kd, by convention in mol/L) is 7.26.
